Test results taken from patent publication US20230406886A1 (DAEGU GYEONGBUK INSTITUTE OF SCIENCE AND TECHNOLOGY, published 2023).

Molecular target: SARS-CoV2 spike protein S1 receptor binding domain (RBD) (SARS-CoV2, UniProt P0DTC2 319-541)

Binder | Kd [nM]
GEFADKLKNELAKTEEQAKTFLDKFNHEAEDLFYQSSGLGKGDFR (designed binder) [COVID-19 therapeutic protein CTP-δ1] | 56.3
COVID-19 therapeutic protein CTP-γ1 (designed binder) MKASSLADNVYNTNITKENVQNMNEEQAKTFLDKFNHEAEDLFYQSSGLGKGDFR | 47.5
COVID-19 therapeutic protein CTP-γ3 (designed binder) MKASELADNVYNTNITKENVQNMNEEQAKTFLDKFNHEAEDLFYQSSGLGKGDFR | 39.2
COVID-19 therapeutic protein CTP-γ2 (designed binder) MKESSLADNVYNTNITKENVQNMNEEQAKTFLDKFNHEAEDLFYQSSGLGKGDFR | 42.8
COVID-19 therapeutic protein CTP-α1 (designed binder) MKSELASNVYNTNITKENVQNMNEEQAKTFLDKFNHEAEDLFYQSSGLGKGDFR | 37.8
COVID-19 therapeutic protein CTP-β1 (designed binder) MKSELASVNYNTNITKENVQANGEEQAKTFLDKFNHEAEDLFYQSSGLGKGDFR | 82
COVID-19 therapeutic protein CTP-α3 (designed binder) MKSQLAENVYNTNITKENVQNMNEEQAKTFLDKFNHEAEDLFYQSSGLGKGDFR | 35.7
COVID-19 therapeutic protein CTP-β3 (designed binder) MESELASNVYNTNITKENVQNMNEEQAKTFLDKFNHEAEDLFYQSSGLGKGDFR | 56.4
COVID-19 therapeutic protein CTP-α2 (designed binder) MKSDLASNVYNTNITKENVQNMNEEQAKTFLDKFNHEAEDLFYQSSGLGKGDFR | 50.4
COVID-19 therapeutic protein CTP-β2 (designed binder) MESELASVNYNTNITKENVQANGEEQAKTFLDKFNHEAEDLFYQSSGLGKGDFR | 42.9
